Source: article PMC3826915 (Nature medicine, 2013)
One block for each molecule: values may come before it.

B2: Recombinant human cold-inducible RNA-binding protein (rhCIRP) (natural protein, UniProt Q14011-1 1-172, looked up)
chain: MASDEGKLFVGGLSFDTNEQSLEQVFSKYGQISEVVVVKDRETQRSRGFGFVTFENIDDAKDAMMAMNGKSVDGRQIRVDQAGKSSDNRSRGYRGGSAGGRGFFRGGRGRGRGFSRGGGDRGYGGNRFESRSGGYGGSRDYYSSRSQSGGYSDRSSGGSYRDSYDSYATHNE

Columns and labels:
[1] = target: TLR4/MD2 (Homo sapiens) (UniProt O00206); experiment: SPR; conditions: cited from earlier work
[2] = target: MD2 (Homo sapiens) (UniProt Q9Y6Y9); conditions: cited from earlier work
[3] = target: TLR4 (Homo sapiens) (UniProt O00206); conditions: cited from earlier work
[4] = target: B2; experiment: SPR
[5] = target: Recombinant human TLR4 (rhTLR4), Glu24-Lys631 (human, UniProt O00206 24-631); experiment: SPR
[6] = target: Recombinant human RAGE (rhRAGE), Ala23-Ala344 (human, UniProt Q15109 23-344); experiment: SPR
[7] = target: Recombinant human TLR4/MD2 complex (rhTLR4/MD2) (human, UniProt O00206 24-631; Q9Y6Y9 17-160); experiment: SPR
[8] = target: Recombinant human TLR2 (rhTLR2), Glu21-Leu590 (human, UniProt O60603 21-590); experiment: SPR
Sequence of Recombinant human TLR2 (rhTLR2), Glu21-Leu590 (O60603 21-590): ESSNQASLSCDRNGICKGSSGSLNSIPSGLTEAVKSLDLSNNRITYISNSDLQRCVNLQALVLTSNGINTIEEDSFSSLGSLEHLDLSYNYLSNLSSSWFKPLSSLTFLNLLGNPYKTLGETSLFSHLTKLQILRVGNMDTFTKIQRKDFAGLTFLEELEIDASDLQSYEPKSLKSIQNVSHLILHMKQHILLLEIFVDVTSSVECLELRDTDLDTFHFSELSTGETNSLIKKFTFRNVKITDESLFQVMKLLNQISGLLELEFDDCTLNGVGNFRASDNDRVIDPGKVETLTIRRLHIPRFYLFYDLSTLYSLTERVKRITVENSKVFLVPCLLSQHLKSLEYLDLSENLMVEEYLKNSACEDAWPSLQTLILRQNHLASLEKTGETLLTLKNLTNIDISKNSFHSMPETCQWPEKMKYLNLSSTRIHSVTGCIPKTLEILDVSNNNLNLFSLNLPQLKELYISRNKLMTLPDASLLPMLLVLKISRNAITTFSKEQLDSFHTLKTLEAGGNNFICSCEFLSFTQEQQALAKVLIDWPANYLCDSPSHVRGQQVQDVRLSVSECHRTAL

Sequence of Recombinant human TLR4 (rhTLR4), Glu24-Lys631 (O00206 24-631): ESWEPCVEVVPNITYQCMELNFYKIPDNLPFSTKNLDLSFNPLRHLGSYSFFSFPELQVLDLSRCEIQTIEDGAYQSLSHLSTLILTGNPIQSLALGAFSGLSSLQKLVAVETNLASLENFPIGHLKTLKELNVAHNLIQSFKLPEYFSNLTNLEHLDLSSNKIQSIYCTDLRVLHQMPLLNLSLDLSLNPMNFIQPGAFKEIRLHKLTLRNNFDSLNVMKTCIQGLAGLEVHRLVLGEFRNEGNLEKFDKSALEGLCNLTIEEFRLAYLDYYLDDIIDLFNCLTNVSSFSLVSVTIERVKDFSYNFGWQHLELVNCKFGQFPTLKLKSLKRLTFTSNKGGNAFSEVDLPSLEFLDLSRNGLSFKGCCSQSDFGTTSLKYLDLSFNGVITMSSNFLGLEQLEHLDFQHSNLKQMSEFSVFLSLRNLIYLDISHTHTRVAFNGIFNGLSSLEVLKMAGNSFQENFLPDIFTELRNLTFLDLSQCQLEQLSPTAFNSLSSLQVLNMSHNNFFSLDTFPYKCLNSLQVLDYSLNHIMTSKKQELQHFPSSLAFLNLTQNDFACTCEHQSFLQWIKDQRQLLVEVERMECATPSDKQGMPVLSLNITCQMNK
Sequence of Recombinant human RAGE (rhRAGE), Ala23-Ala344 (Q15109 23-344): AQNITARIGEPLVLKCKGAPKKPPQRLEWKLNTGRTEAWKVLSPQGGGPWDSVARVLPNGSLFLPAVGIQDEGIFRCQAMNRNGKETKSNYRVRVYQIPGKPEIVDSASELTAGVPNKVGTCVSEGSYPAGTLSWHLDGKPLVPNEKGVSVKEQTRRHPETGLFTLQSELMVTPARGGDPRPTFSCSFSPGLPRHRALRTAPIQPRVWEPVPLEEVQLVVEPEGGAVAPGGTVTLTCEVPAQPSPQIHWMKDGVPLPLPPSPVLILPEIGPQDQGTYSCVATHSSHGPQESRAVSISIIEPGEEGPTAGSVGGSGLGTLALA
Sequence of TLR4/MD2 (Homo sapiens) (O00206 24-839): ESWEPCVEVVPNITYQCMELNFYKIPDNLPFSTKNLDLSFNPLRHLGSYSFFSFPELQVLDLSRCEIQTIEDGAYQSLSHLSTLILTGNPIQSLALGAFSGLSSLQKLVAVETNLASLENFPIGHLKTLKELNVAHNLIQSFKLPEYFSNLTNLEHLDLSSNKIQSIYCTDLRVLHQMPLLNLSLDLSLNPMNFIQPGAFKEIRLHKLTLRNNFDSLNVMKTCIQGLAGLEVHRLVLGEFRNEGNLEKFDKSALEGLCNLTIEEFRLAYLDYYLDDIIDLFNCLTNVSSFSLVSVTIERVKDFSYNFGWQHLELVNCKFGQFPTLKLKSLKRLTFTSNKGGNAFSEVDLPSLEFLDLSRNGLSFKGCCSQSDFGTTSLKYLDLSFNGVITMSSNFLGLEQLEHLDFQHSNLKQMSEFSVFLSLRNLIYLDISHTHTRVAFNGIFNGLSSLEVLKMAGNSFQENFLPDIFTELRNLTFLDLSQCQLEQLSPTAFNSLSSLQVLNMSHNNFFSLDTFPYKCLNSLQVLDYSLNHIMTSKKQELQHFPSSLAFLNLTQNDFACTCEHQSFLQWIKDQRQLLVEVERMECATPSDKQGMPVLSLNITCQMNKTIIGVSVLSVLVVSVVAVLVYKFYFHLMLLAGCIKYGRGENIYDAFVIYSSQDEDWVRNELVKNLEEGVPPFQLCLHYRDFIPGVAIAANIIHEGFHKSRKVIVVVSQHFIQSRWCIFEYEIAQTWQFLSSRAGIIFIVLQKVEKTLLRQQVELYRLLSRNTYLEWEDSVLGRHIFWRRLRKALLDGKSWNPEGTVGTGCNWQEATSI
Sequence of TLR4 (Homo sapiens) (O00206 24-631): as the sequence (O00206 24-631) above
Sequence of Recombinant human TLR4/MD2 complex (rhTLR4/MD2) (O00206 24-631, one chain of several): as the sequence (O00206 24-631) above

Molecule: HMGB1 (from UniProt P09429)
Kd [1]: 1500 nM
Kd [2]: 8 nM

Molecule: MD2 (from UniProt Q9Y6Y9)
Kd [3]: 62.9 nM

Kd [4]: 302 nM
Kd [5]: 53.7 nM
B1: Recombinant human MD2 (rhMD2), Glu17-Asn160 (natural protein, UniProt Q9Y6Y9 17-160, looked up)
chain: EAQKQYWVCNSSDASISYTYCDKMQYPISINVNPCIELKRSKGLLHIFYIPRRDLKQLYFNLYITVNTMNLPKRKEVICRGSDDDYSFCRALKGETVNTTISFSFKGIKFSKGKYKCVVEAISGSPEEMLFCLEFVILHQPNSN

Molecule: B2
Kd [6]: 33.1 nM
Kd [7]: 239 nM
Kd [5]: 617 nM
Kd [8]: 258 nM
